Ten molecules from patent US20220112308A1 (Genentech, published 2022) can be followed below.

Numbering of substitutions follows the chain as printed.

B1: anti-KRas antibody 2A3 (antibody, human IgG1, V domains shown)
VH: EVQLVESGGGLVKPGGSLRLSCAASGFTFSSYSMNWVRQAPGKGLEWVSSISSSSSYIYYADSVKGRFTISRDNAKNSLYLQMNSLRAEDTAVYYCARATSSGYYYFDYWGQGTLVTVSS
VL: ELTQDPAVSVALGQTVRITCQGDSLRSYYASWYQQKPGQAPVLVIYGKNNRPSGIPDRFSGSSSGNTASLTITGAQAEDEADYYCNSRDSTDNHLWVFGGGTKLTVL
notes: also called Class II anti-KRas antibody
B2: anti-KRas antibody 1B7 (antibody, human IgG1, V domains shown)
VH: EVQLVQSGAEVKKPGSSVKVSCKASGGTFSSYAISWVRQAPGQGLEWMGGIIPIFGTANYAQKFQGRVTITADESTSTAYMELSSLRSEDTAVYYCARYYDFWSGYPGGLFDVWGQGTLVTVSS
VL: SVLTQPPSVSAAPGQKVTISCSGSSSNIGNNYVSWYQQLPGTAPKLLIYDNNKRPSGIPDRFSGSKSGTSATLGITGLQTGDEADYYCGTWDSSLTGWVFGGGTKLTVL
notes: also called Class I anti-KRas antibody
B3: anti-KRas antibody 1A6 (antibody, human IgG1, V domains shown)
VH: B2 VH
VL: B2 VL with W98Y
notes: as for B2
B4: anti-KRas antibody 1F4 (antibody, human IgG1, V domains shown)
VH: EVQLVESGGGLVQPGGSLRLSCAASGFTFSSYSMNWVRQAPGKGLEWVSYISSSSSTIYYADSVKGRFTISRDNAKNSLYLQMNSLRAEDTAVYYCARSFGPYAFDVWGQGTLVTVSS
VL: not shown
B5: anti-KRas antibody 1D6 (antibody, human IgG1, V domains shown)
VH: EVQLVESGGGLVQPGGSLRLSCAASGFTFSSYAMSWVRQAPGKGLEWVSAISSSGSSTYYADSVKGRFTISRDNSKNTLYLQMNSLRAEDTAVYYCARDQGGYGYPGESWFDYWGQGTLVTVSS
VL: DIQMTQSPSSLSASVGDRVTITCRASQGISSYLAWYQQKPGKAPKLLIYAASSLQSGVPSRFSGSGSGTDFTLTISSLQPEDFATYYCQQYYSYPFTFGQGTKVEIK
notes: as for B2
B6: anti-KRas antibody 2C1 (antibody, V domains shown)
VH: EVQLVESGGGLVKPGGSLRLSCAASGFTFSSYSMNWVRQAPGKGLEWVSSISSSSSYIYYADSVKGRFTISRDNAKNSLYLQMNSLRAEDTAVYYCARAFYSYMDVWGQGTLVTVSS
VL: not shown
notes: as for B2
B7: anti-KRas antibody 3A12 (antibody, V domains shown)
VH: EVQLVESGGGLVQPGGSLRLSCAASGFTFSSYSMNWVRQAPGKGLEWVSYISSSSSTIYYADSVKGRFTISRDNAKNSLYLQMNSLRAEDTAVYYCARGKGIVGWGFFGMDVWGQGTLVTVSS
VL: B2 VL with S93N, T96S, G97V
notes: as for B1
B8: anti-KRas antibody 2H11 (antibody, human IgG1, V domains shown)
VH: EVQLQESGPGLVKPPGTLSLTCAVSGGSISSSNWWSWVRQPPGKGLEWIGEIYHSGSTNYNPSLKSRVTISVDKSKNQFSLKLSSVTAADTAVYYCARGSSSWYDLGPFDYWGQGTLVTVSS
VL: not shown
notes: also called Class II anti-KRas antibody; CLAMP
B9: anti-KRas antibody 1A5 (antibody, human IgG1, V domains shown)
VH: EVQLVESGGGLVQPGGSLRLSCAASGFTFSSYSMNWVRQAPGKGLEWVSYISSSSSTIYYADSVKGRFTISRDNAKNSLYLQMNSLRAEDTAVYYCARGFYVRNWFDPWGQGTLVTVSS
VL: B5 VL with D1A, S30R, S31N, Y32D, A34G, Q89L, Y91D, Y92H, S93D, F96L
notes: also called Class I anti-KRas antibody; 1A5-488 (labelled form in FACS)
B10: anti-KRas antibody 1E5 (antibody, V domains shown)
VH: B1 VH with A99T, T100N, S101N, S102Y, Y105R
VL: LTQDPAVSVALGQTVRITCQGDSLRSYYASWYQQKPGQAPVLVIYGKNNRPSGIPDRFSGSSSGNTASLTITGAQAEDEADYYCNSRDSSGNHWVFGGGTKLTVL
notes: as for B1

The target in one test is KRas^WT-GTP (recombinant) (human, UniProt P01116-2 2-169, GTP bound as printed in Table 1B). Nature of the test: SPR, KRas bound to GTP (Table 1B).
For B1, the Kd came out at 7 nM.

Another test addresses T1, KRas^WT-GDP (recombinant) (human, UniProt P01116-2 2-169, GDP bound). Nature of the test: SPR, IgG captured, KRas as analyte.
Description: (§1) SPR experiments were carried out on the Mass-1 (Bruker) at 25° C. using HBS-P+(GE Healthcare) running buffer. 1 μg/mL of the anti-KRas antibodies were captured using an anti-HuIgG1 Fc capture kit (GE Healthcare). […] KRas^G12C-GDP was titrated using a dilution series from 5000-0 nM. KRas^G12C-GDP+ARS1620 was titrated using a dilution series from 1000-0 nM. KRas^G12C-GDP+ARS853 was titrated using a dilution series from 200-0 nM. KRasWT-GDP was titrated using a dilution series from 2000-0 nM. Sensorgrams were fit to a 1:1 Langmuir model to identify kinetic parameters.
For B2, the binding result was “no binding (tested: titrated 2000-0 nM)”.

For the molecule B3, the binding result is recorded as “no binding (tested: titrated 2000-0 nM)”.

On to B4, for which the binding result is listed as “no binding (tested: titrated 2000-0 nM)”. As for B5, the binding result is “no binding (tested: titrated 2000-0 nM)”. For B6, the binding result is given as “no binding (tested: titrated 2000-0 nM)”.

For a further test, the target named is T1, KRas^WT-GDP (recombinant). Nature of the test: SPR, IgG captured by anti-human IgG1 Fc, KRas in solution, 25 C, 1:1 Langmuir fit.
Description: as §1
For B7, the Kd is 24 nM. For the molecule B8, the Kd stood at 42 nM. Still for that read-out and setting: the result for B9 reads 159 nM; that for B10, 411 nM; that for B1, 71 nM.
